Experimental data published in publication PMC2899887 (Biochemistry, 2010).
One block for each molecule: values may come before it. Where no end group is shown, it is not given here.

Tests used:
[1] = biological target: EGFR 647-654 (Homo sapiens) (UniProt P00533); experiment: NMR; settings: cited from earlier work
[2] = biological target: T1, Nck2_70-168 (human, UniProt O43639 70-168); experiment: NMR titration
T1 sequence (looked up): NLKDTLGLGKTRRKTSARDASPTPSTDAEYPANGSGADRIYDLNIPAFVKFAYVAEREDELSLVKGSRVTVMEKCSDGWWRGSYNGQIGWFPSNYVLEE

[3] = biological target: T2, isolated 2nd SH3 domain (SH3.2) of human Nck2, residues 112-168 (human, UniProt O43639 112-168); experiment: NMR titration
T2 sequence (looked up): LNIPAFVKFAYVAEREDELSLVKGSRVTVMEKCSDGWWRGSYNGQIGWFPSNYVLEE

Molecule: Nck1 SH3.2 (from UniProt P16333)
Kd [1]: 80 µM

fold increase of Kd against the isolated SH3.2 domain [2]: 4.7 fold
B1: Pak1 peptide (9-QDKPPAPPMRN-19) (peptide)
peptide: QDKPPAPPMRN-NH2

fold increase of Kd against the isolated SH3.2 domain [2]: 4.7 fold
B2: SOS1 peptide (1146-EVPVPPPVPPRR-1157) (peptide)
peptide: EVPVPPPVPPRR-NH2

Kd [3]: ~1700 µM
B3: Nck2_71-90 peptide (peptide)
peptide: LKDTLGLGKTRRKTSARDAS-NH2
